{
  "source": "paper PMC5622320",
  "about": "(Nucleic Acids Research, 2017)",
  "target": "T1, stFlhD4C2 (Salmonella typhimurium, UniProt P0A2R2;O52222)",
  "T1 sequence 1": "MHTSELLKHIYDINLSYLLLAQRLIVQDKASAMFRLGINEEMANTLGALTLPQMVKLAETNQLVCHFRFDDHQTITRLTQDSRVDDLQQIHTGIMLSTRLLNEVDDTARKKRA",
  "T1 sequence 2": "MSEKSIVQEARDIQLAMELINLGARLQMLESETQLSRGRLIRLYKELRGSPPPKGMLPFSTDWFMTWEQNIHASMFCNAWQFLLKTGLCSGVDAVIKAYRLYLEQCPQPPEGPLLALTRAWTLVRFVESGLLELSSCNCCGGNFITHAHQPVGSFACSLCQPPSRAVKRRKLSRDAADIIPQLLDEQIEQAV",
  "test": "native gel or EMSA",
  "data": [
    {"binder": "YdiV (natural protein) MKIFLENLYHSDCYFLPIRDNQQVLVGVELITHFSSEDGTVRIPTSRVIAQLTEEQHWQLFSEQLELLKSCQHFFIQHKLFAWLNLTPQVATLLLERDNYAGELLKYPFIELLINENYPHLNEGKDNRGLLSLSQVYPLVLGNLGAGNSTMKAVFDGLFTRVMLDKSFIQQQITHRSFEPFIRAIQAQISPCCNCIIAGGIDTAEILAQITPFDFHALQGCLWPAVPINQITTLVQR", "values": [
      {"measurement": "binding result", "value": "binds"}
    ]}
  ]
}
